Data published in PMC5695864.

B1: Aleuria aurantia lectin (AAL) (natural protein)
chain: MPTEFLYTSKIAAISWAATGGRQQRVYFQDLNGKIREAQRGGDNPWTGGSSQNVIGEAKLFSPLAAVTWKSAQGIQIRVYCVNKDNILSEFVYDGSKWITGQLGSVGVKVGSNSKLAALQWGGSESAPPNIRVYYQKSNGSGSSIHEYVWSGKWTAGASFGSTVPGTGIGATAIGPGRLRIYYQATDNKIREHCWDSNSWYVGGFSASASAGVSIAAISWGSTPNIRVYWQKGREELYEAAYGGSWNTPGQIKDASRPTPSLPDTFIAANSSGNIDISVFFQASGVSLQQWQWISGKGWSIGAVVPTGTPAGW
modifications: biotin (AAL-biotin)

Experiments:
[1] = target: core-fucosylated RNase B (21) (bovine) (UniProt P61823); test: ELISA
UniProt P61823, sequence (P61823 27-150): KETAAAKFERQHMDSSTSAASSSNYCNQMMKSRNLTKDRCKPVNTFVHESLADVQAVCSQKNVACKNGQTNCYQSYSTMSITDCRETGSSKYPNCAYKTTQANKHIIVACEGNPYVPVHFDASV

[2] = target: S2G2F-rituximab (30), core-fucosylated sialyl complex type glycoform of rituximab (human); test: ELISA

Molecule | EC50 [1] [µM] | EC50 [2] [µM]
Aleuria aurantia lectin (AAL) (from UniProt P18891 1-313) (natural protein) | 275 | 
B1 |  | 15
